Drawing on paper PMC10157364, this text covers EC50 and Kd for one molecule.

The target of test [1] is all anti-oxMIF antibodies (quantitative oxMIF ELISA, Fig. 1C). The experiment in a line: ELISA; quantitative oxMIF ELISA: 15 nmol/L C0008, ON103 or ON203 as capture antibodies; human or mouse MIF in buffers with 0.2% Proclin300 as standard curves; EC50. For orientation: An ELISA detects its analyte on a solid surface through an enzyme-linked reagent.
Test [2] addresses ON103 and ON203 versus C0008 (SPR, Fig. 1D). The experiment in a line: SPR; Biacore 3000; antibodies amine-coupled to CM5 chips (about 2,500; 1,500; 1,000 RU); MIF at 42-666 nmol/L in HBS-EP with 0.2% Proclin300 (3 hours, room temperature), 30 uL/minute; Langmuir 1:1 model with mass transfer; mean of flow cells 2-4. (In SPR one partner is held on a chip, and binding of the other changes the refractive index at the surface.)

As usually defined, the EC50 is the concentration that produces a half-maximal response. High values mean a need for much substance, low ones an effect from little substance. The Kd is the free concentration of one partner at which half of the binding sites on the other are occupied at equilibrium, for simple one-to-one binding.

B1: human MIF treated with 0.2% Proclin300 (oxMIF surrogate) (natural protein)
chain: MPMFIVNTNVPRASVPDGFLSELTQQLAQATGKPPQYIAVHVVPDQLMAFGGSSEPCALCSLHSIGKIGGAQNRSYSKLLCGLLAERLRISPDRVYINYYDMNAANVGWNNSTFA
modifications: treated with 0.2% Proclin300 to transform MIF into an oxMIF surrogate
The molecule B1 registered an EC50 in test [1] of 0.6 to 0.7 nM. This molecule also yielded a Kd in test [2] of 3.5 to 6.1 nM.
